Source: article PMC3333885 (Nucleic Acids Research, 2011)

T1: EcoP15I Res subunit, C-terminally His6-tagged (from pQEP15) (UniProt Q5ZND2 1-970)
T1 sequence (looked up): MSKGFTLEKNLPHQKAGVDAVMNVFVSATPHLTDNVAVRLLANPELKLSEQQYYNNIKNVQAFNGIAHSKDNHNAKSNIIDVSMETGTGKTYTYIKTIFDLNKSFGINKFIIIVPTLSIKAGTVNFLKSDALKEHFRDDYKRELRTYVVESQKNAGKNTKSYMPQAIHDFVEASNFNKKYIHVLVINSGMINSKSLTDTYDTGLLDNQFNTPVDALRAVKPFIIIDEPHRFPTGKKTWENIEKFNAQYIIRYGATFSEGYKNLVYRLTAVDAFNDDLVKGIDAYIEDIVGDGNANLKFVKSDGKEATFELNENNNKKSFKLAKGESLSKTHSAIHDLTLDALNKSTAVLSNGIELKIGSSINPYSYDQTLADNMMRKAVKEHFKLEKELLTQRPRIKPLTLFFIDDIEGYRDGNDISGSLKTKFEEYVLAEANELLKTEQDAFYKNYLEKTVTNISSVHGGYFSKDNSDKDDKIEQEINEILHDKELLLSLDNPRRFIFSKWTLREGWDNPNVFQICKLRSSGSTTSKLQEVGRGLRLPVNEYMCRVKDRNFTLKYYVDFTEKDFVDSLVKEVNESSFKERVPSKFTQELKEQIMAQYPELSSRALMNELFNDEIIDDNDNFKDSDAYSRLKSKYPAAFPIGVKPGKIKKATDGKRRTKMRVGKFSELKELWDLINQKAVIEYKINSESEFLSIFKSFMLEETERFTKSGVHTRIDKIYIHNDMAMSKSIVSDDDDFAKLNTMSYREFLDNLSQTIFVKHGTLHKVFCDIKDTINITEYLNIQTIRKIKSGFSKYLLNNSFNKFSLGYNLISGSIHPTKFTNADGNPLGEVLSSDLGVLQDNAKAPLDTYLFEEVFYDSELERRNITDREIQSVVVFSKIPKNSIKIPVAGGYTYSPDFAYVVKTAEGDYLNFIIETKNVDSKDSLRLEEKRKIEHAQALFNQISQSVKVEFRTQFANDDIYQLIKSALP

T2: EcoP15I Res subunit (earlier preparations from pACYC177, no affinity tag) (UniProt Q5ZND2 1-970)
T2 sequence (looked up): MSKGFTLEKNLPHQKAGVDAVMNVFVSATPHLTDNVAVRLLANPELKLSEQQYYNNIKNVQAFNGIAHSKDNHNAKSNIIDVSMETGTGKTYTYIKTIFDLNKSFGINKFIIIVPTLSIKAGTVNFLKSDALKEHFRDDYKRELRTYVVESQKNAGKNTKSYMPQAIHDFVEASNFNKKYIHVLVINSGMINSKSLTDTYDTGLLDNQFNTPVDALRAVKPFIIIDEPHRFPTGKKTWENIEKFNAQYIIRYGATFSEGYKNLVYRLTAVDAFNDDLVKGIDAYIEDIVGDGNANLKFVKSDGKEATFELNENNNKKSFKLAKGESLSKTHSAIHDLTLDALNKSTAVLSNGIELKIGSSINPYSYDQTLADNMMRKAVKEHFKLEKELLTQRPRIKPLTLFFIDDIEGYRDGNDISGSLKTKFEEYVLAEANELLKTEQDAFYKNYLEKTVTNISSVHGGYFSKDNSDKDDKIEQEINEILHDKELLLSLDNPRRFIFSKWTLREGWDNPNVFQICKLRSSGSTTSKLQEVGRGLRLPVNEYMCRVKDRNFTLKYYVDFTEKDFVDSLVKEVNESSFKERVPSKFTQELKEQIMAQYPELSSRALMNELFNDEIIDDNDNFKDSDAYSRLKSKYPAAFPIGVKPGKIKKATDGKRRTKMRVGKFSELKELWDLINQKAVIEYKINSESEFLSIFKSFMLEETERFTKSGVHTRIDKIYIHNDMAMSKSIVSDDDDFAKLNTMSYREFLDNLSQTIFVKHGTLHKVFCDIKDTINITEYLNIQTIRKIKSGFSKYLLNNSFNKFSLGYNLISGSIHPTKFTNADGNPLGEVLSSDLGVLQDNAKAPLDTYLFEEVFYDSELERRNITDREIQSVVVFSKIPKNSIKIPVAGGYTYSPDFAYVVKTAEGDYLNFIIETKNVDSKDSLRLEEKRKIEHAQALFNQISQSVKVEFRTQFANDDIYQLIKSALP

T3: EcoP15I Res translocase (Tr) domain (UniProt Q5ZND2 1-705)
T3 sequence: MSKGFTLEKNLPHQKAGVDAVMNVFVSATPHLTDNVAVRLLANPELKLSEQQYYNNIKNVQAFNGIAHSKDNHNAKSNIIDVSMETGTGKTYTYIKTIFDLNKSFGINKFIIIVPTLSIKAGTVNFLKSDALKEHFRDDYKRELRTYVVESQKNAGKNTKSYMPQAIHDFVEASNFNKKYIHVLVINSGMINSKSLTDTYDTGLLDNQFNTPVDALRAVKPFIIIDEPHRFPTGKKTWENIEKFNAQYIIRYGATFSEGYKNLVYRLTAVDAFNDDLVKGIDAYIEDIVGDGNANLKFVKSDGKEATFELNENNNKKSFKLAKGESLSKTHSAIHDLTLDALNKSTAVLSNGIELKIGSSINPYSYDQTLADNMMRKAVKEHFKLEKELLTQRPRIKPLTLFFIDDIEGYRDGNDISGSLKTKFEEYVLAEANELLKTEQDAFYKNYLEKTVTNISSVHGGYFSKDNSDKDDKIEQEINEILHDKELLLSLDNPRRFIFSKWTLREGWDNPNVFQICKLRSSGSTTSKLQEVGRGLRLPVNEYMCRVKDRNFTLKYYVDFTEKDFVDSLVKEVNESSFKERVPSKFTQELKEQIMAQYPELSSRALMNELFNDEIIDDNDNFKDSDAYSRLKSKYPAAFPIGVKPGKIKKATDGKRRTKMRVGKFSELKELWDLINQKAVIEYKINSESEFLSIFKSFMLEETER

T4: EcoP15I Mod subunit;EcoP15I Res translocase (Tr) domain (Escherichia coli?;Escherichia coli?, UniProt P12364;Q5ZND2 1-644;1-705, |)
T4 sequence 1: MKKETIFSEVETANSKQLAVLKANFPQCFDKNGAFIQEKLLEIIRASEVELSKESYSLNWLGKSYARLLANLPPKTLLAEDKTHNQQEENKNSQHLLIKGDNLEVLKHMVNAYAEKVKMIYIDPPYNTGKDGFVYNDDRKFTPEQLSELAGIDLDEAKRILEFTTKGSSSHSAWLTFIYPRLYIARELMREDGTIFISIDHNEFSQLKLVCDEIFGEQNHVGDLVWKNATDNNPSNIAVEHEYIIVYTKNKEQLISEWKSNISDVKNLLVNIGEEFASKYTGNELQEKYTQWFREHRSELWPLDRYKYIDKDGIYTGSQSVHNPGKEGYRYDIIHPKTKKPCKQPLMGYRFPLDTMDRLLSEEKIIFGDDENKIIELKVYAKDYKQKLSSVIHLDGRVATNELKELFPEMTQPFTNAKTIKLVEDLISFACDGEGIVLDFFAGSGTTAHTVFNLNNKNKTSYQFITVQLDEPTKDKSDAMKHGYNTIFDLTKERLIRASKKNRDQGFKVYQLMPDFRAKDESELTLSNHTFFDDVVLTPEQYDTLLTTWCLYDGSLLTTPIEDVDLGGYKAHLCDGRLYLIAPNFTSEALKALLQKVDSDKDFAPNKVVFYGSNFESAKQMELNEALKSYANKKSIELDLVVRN
T4 sequence 2: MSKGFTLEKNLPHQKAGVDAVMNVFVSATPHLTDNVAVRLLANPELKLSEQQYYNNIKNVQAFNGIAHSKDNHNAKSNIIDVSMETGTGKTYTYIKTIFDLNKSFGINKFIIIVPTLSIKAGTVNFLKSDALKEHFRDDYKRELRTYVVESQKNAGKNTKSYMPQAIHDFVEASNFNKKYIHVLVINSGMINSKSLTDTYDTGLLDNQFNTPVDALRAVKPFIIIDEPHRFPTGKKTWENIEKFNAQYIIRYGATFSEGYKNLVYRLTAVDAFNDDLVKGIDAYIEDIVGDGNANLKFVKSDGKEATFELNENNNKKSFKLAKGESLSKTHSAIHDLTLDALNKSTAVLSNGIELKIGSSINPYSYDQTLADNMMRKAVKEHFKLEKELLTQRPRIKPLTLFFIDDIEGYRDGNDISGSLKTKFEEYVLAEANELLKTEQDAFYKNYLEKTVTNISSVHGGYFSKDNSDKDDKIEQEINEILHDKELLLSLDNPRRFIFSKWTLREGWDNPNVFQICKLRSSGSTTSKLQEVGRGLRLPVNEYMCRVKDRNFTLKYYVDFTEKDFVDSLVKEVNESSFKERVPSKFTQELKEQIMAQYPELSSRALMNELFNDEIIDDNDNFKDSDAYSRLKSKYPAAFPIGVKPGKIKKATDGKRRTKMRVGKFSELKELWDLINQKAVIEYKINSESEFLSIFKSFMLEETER


Key:
AUC = biological target: the molecule itself; test: AUC
[1] = biological target: T1, EcoP15I Res subunit, C-terminally …; test: second-derivative UV absorption spectroscopy
[2] = biological target: T1, EcoP15I Res subunit, C-terminally …; test: SEC
[3] = biological target: T2, EcoP15I Res subunit (earlier …); test: densitometry of SDS-PAGE of the purified enzyme
[4] = biological target: T3, EcoP15I Res translocase (Tr) domain; test: EMSA
[5] = biological target: EcoP15I Mod subunit;EcoP15I Res subunit (Escherichia coli?;Escherichia coli?, UniProt P12364;Q5ZND2 1-644;1-970, |); test: EMSA
[6] = biological target: T4, EcoP15I Mod subunit;EcoP15I Res …; test: EMSA

| Binder | Kd [4] | Kd [5] | Kd [6] | further results |
| --- | --- | --- | --- | --- |
| EcoP15I MTase (Mod subunit, C-terminally His-tagged) (enzyme, UniProt P12364 1-644, looked up) MKKETIFSEVETANSKQLAVLKANFPQCFDKNGAFIQEKLLEIIRASEVELSKESYSLNWLGKSYARLLANLPPKTLLAEDKTHNQQEENKNSQHLLIKGDNLEVLKHMVNAYAEKVKMIYIDPPYNTGKDGFVYNDDRKFTPEQLSELAGIDLDEAKRILEFTTKGSSSHSAWLTFIYPRLYIARELMREDGTIFISIDHNEFSQLKLVCDEIFGEQNHVGDLVWKNATDNNPSNIAVEHEYIIVYTKNKEQLISEWKSNISDVKNLLVNIGEEFASKYTGNELQEKYTQWFREHRSELWPLDRYKYIDKDGIYTGSQSVHNPGKEGYRYDIIHPKTKKPCKQPLMGYRFPLDTMDRLLSEEKIIFGDDENKIIELKVYAKDYKQKLSSVIHLDGRVATNELKELFPEMTQPFTNAKTIKLVEDLISFACDGEGIVLDFFAGSGTTAHTVFNLNNKNKTSYQFITVQLDEPTKDKSDAMKHGYNTIFDLTKERLIRASKKNRDQGFKVYQLMPDFRAKDESELTLSNHTFFDDVVLTPEQYDTLLTTWCLYDGSLLTTPIEDVDLGGYKAHLCDGRLYLIAPNFTSEALKALLQKVDSDKDFAPNKVVFYGSNFESAKQMELNEALKSYANKKSIELDLVVRN | – | – | – | stoichiometry N (AUC): 2 |
| EcoP15I Mod subunit (untagged, from pQEP15) (natural protein, UniProt P12364 1-644, looked up) MKKETIFSEVETANSKQLAVLKANFPQCFDKNGAFIQEKLLEIIRASEVELSKESYSLNWLGKSYARLLANLPPKTLLAEDKTHNQQEENKNSQHLLIKGDNLEVLKHMVNAYAEKVKMIYIDPPYNTGKDGFVYNDDRKFTPEQLSELAGIDLDEAKRILEFTTKGSSSHSAWLTFIYPRLYIARELMREDGTIFISIDHNEFSQLKLVCDEIFGEQNHVGDLVWKNATDNNPSNIAVEHEYIIVYTKNKEQLISEWKSNISDVKNLLVNIGEEFASKYTGNELQEKYTQWFREHRSELWPLDRYKYIDKDGIYTGSQSVHNPGKEGYRYDIIHPKTKKPCKQPLMGYRFPLDTMDRLLSEEKIIFGDDENKIIELKVYAKDYKQKLSSVIHLDGRVATNELKELFPEMTQPFTNAKTIKLVEDLISFACDGEGIVLDFFAGSGTTAHTVFNLNNKNKTSYQFITVQLDEPTKDKSDAMKHGYNTIFDLTKERLIRASKKNRDQGFKVYQLMPDFRAKDESELTLSNHTFFDDVVLTPEQYDTLLTTWCLYDGSLLTTPIEDVDLGGYKAHLCDGRLYLIAPNFTSEALKALLQKVDSDKDFAPNKVVFYGSNFESAKQMELNEALKSYANKKSIELDLVVRN | – | – | – | stoichiometry N [1]: 2 Mod:Res; Mod:Res ratio in SEC peak 1 [2]: ~1 Mod:Res; stoichiometry N [2]: 1.8 Mod:Res |
| EcoP15I Mod subunit (earlier preparations from pACYC177, no affinity tag) (natural protein, UniProt P12364 1-644, looked up) MKKETIFSEVETANSKQLAVLKANFPQCFDKNGAFIQEKLLEIIRASEVELSKESYSLNWLGKSYARLLANLPPKTLLAEDKTHNQQEENKNSQHLLIKGDNLEVLKHMVNAYAEKVKMIYIDPPYNTGKDGFVYNDDRKFTPEQLSELAGIDLDEAKRILEFTTKGSSSHSAWLTFIYPRLYIARELMREDGTIFISIDHNEFSQLKLVCDEIFGEQNHVGDLVWKNATDNNPSNIAVEHEYIIVYTKNKEQLISEWKSNISDVKNLLVNIGEEFASKYTGNELQEKYTQWFREHRSELWPLDRYKYIDKDGIYTGSQSVHNPGKEGYRYDIIHPKTKKPCKQPLMGYRFPLDTMDRLLSEEKIIFGDDENKIIELKVYAKDYKQKLSSVIHLDGRVATNELKELFPEMTQPFTNAKTIKLVEDLISFACDGEGIVLDFFAGSGTTAHTVFNLNNKNKTSYQFITVQLDEPTKDKSDAMKHGYNTIFDLTKERLIRASKKNRDQGFKVYQLMPDFRAKDESELTLSNHTFFDDVVLTPEQYDTLLTTWCLYDGSLLTTPIEDVDLGGYKAHLCDGRLYLIAPNFTSEALKALLQKVDSDKDFAPNKVVFYGSNFESAKQMELNEALKSYANKKSIELDLVVRN | – | – | – | stoichiometry N [3]: 1.8 ± 0.15 Mod:Res |
| SR60-1/SR60-1c, dsDNA one site (dsDNA) DNA 1: GGTCGACGAACCGTAATCGTACCCAGCAGATATCGGTACCGTTCGGTAATATTCCGACGG DNA 2: CCGTCGGAATATTACCGAACGGTACCGATATCTGCTGGGTACGATTACGGTTCGTCGACC | 128 nM | 16 nM | 121 nM | – |
| SR60-0/SR60-0c, dsDNA no site (dsDNA) DNA 1: GGTCGACGAACCGTAATCGTACCGAACCGATATCGGTACCGTTCGGTAATATTCCGACGG DNA 2: CCGTCGGAATATTACCGAACGGTACCGATATCGGTTCGGTACGATTACGGTTCGTCGACC | 93 nM | 37 nM | 160 nM | – |
| SR60-1, ssDNA (ssDNA) DNA: GGTCGACGAACCGTAATCGTACCCAGCAGATATCGGTACCGTTCGGTAATATTCCGACGG | 268 nM | 267 nM | 346 nM | – |
